Data reported in the supplement of paper PMC12764529.
± gives the half width of the 95% confidence interval.

How the values were obtained:
[1] = folding stability dG unfold (combined trypsin and chymotrypsin); higher = more stable
Procedure, shortened: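 Mini-proteins designed to be under 80 residues and free of cysteine were carried in a PA-tagged cDNA display construct and digested with trypsin and with chymotrypsin. Each protease was applied at 11 threefold-diluted concentrations, alongside a no-protease condition, before sequencing. K50 came from Bayesian fitting of the sequencing counts, and unfolding free energy was obtained by comparing it with a sequence-predicted unfolded-state K50 and a shared folded-state K50, for each protease separately or for both together. Designs were retained only if their AlphaFold2 dimer inter-PAE exceeded 15.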

[2] = folding stability dG unfold from chymotrypsin proteolysis; higher = more stable
Description: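 Folding stability of de novo designed mini-proteins (<80 aa, no Cys; designed by TrROS, TrMRF, ProteinMPNN and the joint model) was measured by cDNA display proteolysis with trypsin and chymotrypsin. Each protease was used at 11 concentrations in a threefold dilution series plus a no-protease condition. K50 was inferred by Bayesian fitting of sequencing counts, and dG unfold was derived against a sequence-predicted unfolded-state K50 (Tsuboyama et al. method). Sequences shown include variable-length N-terminal GS-type padding (SAGGSAGG...) inside a display construct carrying a PA tag. Rows were kept only if the AF2 dimer inter-PAE was >15, to exclude likely homo-oligomers.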

Sequence | folding stability dG unfold [1] | folding stability dG unfold [2]
SAGGSAGGPMKPVEYEIPLPGRPITIEVNPPYGYIDIEWPPNGKERTVPMSPGQSAEDILKELFSAGGSAGG [r6_166_TrROS] | < -1 kcal/mol | -1.41 ± 0.32 kcal/mol
SAGGSAGGSAAVVVNATPDDGFTIYDPATGERLADAEVTKTNGDSLNLPHPDGRAVAVDPRKSAGGSAGGSA [r18_363_JUSTAS] | -0.373 ± 0.47 kcal/mol | 0.231 ± 0.084 kcal/mol
SAGGSAGGSADEFVVVADLPEGGEARLLVLPLPDGSYLVAEAEAERHGDRTVLHVKVTPAESAGGSAGGSAG [r3_281_TrMRF] | -0.0917 ± 0.14 kcal/mol | 0.595 ± 0.11 kcal/mol
SAGGSAGGSADPAFEALARAEGVPVEVTREGDTLVVTARRPDPAGREVVEEFRVPVPPELLESAGGSAGGSA [r18_27_JUSTAS] | < -1 kcal/mol | -0.174 ± 0.14 kcal/mol
SAGGSAGGSAGAEPLVREFEGRRIVLYREEDPGTARIEVFVGDKPYTVPLEYVPEELLLDSAGGSAGGSAGG [r11_152_TrMRF] | 0.325 ± 0.053 kcal/mol | 0.78 ± 0.085 kcal/mol
SAGGSAGGSAGAVTVTLTGGPTLEIPIPDVPPEELGTPEVVARIEAIAAARGLTIASIRLSAGGSAGGSAGG [r11_467_JUSTAS] | < -1 kcal/mol | -0.14 ± 0.14 kcal/mol
SAGGSAGGSAGDGDTMPFIMIHPDYLTINTWKFNPDGGLEIKSVKTIPLPPPKPSPDNKKSAGGSAGGSAGG [r11_843_TrROS] | -0.48 ± 0.21 kcal/mol | -0.466 ± 0.45 kcal/mol
SAGGSAGGSAGDNGPLVIEVDISPDALADAVKNNKPLNANVRIYRPDGSPGGVFDLLIPASAGGSAGGSAGG [r11_26_TrMRF] | -0.126 ± 0.12 kcal/mol | 0.217 ± 0.076 kcal/mol
SAGGSAGGSAGDVEVTEVTDANGNLTLTVKAKPATVTPNETVTVTLTVVNDDGETKTFELSAGGSAGGSAGG [r17_293_TrROS_Hall] | -0.493 ± 0.41 kcal/mol | -0.186 ± 0.4 kcal/mol
SAGGSAGGSAGELPEGAKVEVREETFTRPDGYLVKRTEVRLEDTDELVTSEEVIEPGEEPSAGGSAGGSAGG [r11_338_TrROS_Hall] | 0.378 ± 0.06 kcal/mol | 0.899 ± 0.086 kcal/mol
SAGGSAGGSAGEPKIKKKYIIPLKLKDPNTDKVYIANIEVDNKEEVPKIVKKLKDKGYLSSAGGSAGGSAGG [r11_668_TrMRF] | -0.0903 ± 0.4 kcal/mol | 0.351 ± 0.32 kcal/mol
SAGGSAGGSAGEWIPADYIRDFARNLGMPGKIDVERKEDGWFTIEIRNNGGPRKIQIPLDSAGGSAGGSAGG [r11_410_TrROS] | -0.548 ± 0.38 kcal/mol | 0.00957 ± 0.25 kcal/mol
SAGGSAGGSAGGAADAKVRLVLRTRTFDAVPGEERELPGDSWVYEVGDKAVALELLADPVSAGGSAGGSAGG [r7_506_TrMRF] | 0.21 ± 0.083 kcal/mol | 0.895 ± 0.058 kcal/mol
SAGGSAGGSAGGAMDLPPSREAEIKLPNGETIRIFRPPDGSITLEFYDKGGKKTKIIPNSAGGSAGGSAGGS [r10_150_JUSTAS] | < -1 kcal/mol | -0.124 ± 0.17 kcal/mol
SAGGSAGGSAGGAVERFPGPATVTALPDGRRLVTTTDPSGRPTLTLLEVETPERVTAHPASAGGSAGGSAGG [r7_423_JUSTAS] | -0.663 ± 0.2 kcal/mol | 0.286 ± 0.038 kcal/mol
SAGGSAGGSAGGDEIAKQIAEHFREKGLDKNREIEIRNPENGEKITVRYTPEGGDFEVEPSAGGSAGGSAGG [r7_301_TrROS] | < -1 kcal/mol | -0.057 ± 0.17 kcal/mol
SAGGSAGGSAGGDPDGKPPPKIEFEMETVPIPNPDGQALEIEIFRIKGNGMLFIMIEPYSAGGSAGGSAGGS [r10_1137_TrROS] | 4.47 ± 0.84 kcal/mol | 4.21 ± 0.29 kcal/mol
SAGGSAGGSAGGEPEPIPIKVKIYNPEDGKKREVDFWIPYGNIKEVLKELMPKGYKVEIESAGGSAGGSAGG [r7_230_TrROS] | -0.506 ± 0.33 kcal/mol | -0.281 ± 0.23 kcal/mol
SAGGSAGGSAGGGKVTVYTDPKGGVVITTTETPDSITATVVDPSGKTTTVTVPPGAPLLSAGGSAGGSAGGS [r10_976_JUSTAS] | -0.183 ± 0.38 kcal/mol | 0.243 ± 0.18 kcal/mol
SAGGSAGGSAGGGMDEEETVELDLTTKGTDPAEVEAARAARAEELGLPLADVRVRVSAESAGGSAGGSAGGS [r10_401_JUSTAS] | < -1 kcal/mol | -0.252 ± 0.036 kcal/mol
SAGGSAGGSAGGGMITFSSESVEEFGSVTPVNVVRRVTRYTTKVGDTIIETTEEEVVPLESAGGSAGGSAGG [r7_248_JUSTAS] | -0.368 ± 0.28 kcal/mol | -0.049 ± 0.4 kcal/mol

Sequence | folding stability dG unfold [1] | folding stability dG unfold [2]
SAGGSAGGSAGGGMPYPIKTEVEIKKNGPNISTTETVYRPDGTKIETKKYKIPKKELKKKSAGGSAGGSAGG [r7_602_JUSTAS] | < -1 kcal/mol | 0.154 ± 0.28 kcal/mol
SAGGSAGGSAGGGPEVEVETETLPTADGRPVRLVRARVPTREYLFLVSPDGEILRRIPVSAGGSAGGSAGGS [r10_97_TrMRF] | -0.331 ± 0.22 kcal/mol | 0.331 ± 0.16 kcal/mol
SAGGSAGGSAGGGSMILNVRTVVEEDFPINDRRKVTVLDPVVLVPAVAFDPSTGKATPVSAGGSAGGSAGGS [r10_815_JUSTAS] | 0.298 ± 0.083 kcal/mol | 0.667 ± 0.085 kcal/mol
SAGGSAGGSAGGGSMTKIGNGYLRYTLPGDTVVIYDPSTGTTQTLPVSNPVPVELPPNIPSAGGSAGGSAGG [r7_299_JUSTAS] | 0.208 ± 0.057 kcal/mol | 0.671 ± 0.031 kcal/mol
SAGGSAGGSAGGHPVLLTVPRRYTYLLPGTAPRTVTVPVPVVVEVDDPEVALRLARELEGSAGGSAGGSAGG [r7_21_TrMRF] | < -1 kcal/mol | -0.35 ± 0.73 kcal/mol
SAGGSAGGSAGGKKEREFKFPGAPIQAPVERNPANGKLKIDVEVTGDNPDWAKRLADAFSAGGSAGGSAGGS [r10_582_TrROS] | < -1 kcal/mol | -0.513 ± 0.56 kcal/mol
SAGGSAGGSAGGKTYYVTGKLYLKDKPRVIEVKLPYPSELEEEAPERVKKLAEELAKEESAGGSAGGSAGGS [r10_313_TrMRF] | < -1 kcal/mol | -0.394 ± 0.38 kcal/mol
SAGGSAGGSAGGMDEPVSLPVRKPILSPGSPEEAEARAAELKAPGVEVDAVPRDAAGRLESAGGSAGGSAGG [r11_703_JUSTAS] | 0.126 ± 0.13 kcal/mol | 0.764 ± 0.037 kcal/mol
SAGGSAGGSAGGMFYIKIPNGKQFPFKSKEEFKDQLRERNGRPMKIKDIEIQPLDPNQFSAGGSAGGSAGGS [r10_62_TrROS] | -0.0888 ± 0.32 kcal/mol | 0.586 ± 0.26 kcal/mol
SAGGSAGGSAGGMIDIPISPEIAENVPPGATVEVEILRDDGRIERLKVKVEDFEPVLPGGSAGGSAGGSAGG [r7_732_TrMRF] | 0.0628 ± 0.26 kcal/mol | 0.308 ± 0.044 kcal/mol
SAGGSAGGSAGGMIWIPESELSKLPESFKNFKILKKTPLTLPHPSKKNKPVVLVEIEKKESAGGSAGGSAGG [r7_237_JUSTAS] | 0.122 ± 0.53 kcal/mol | 0.696 ± 0.23 kcal/mol
SAGGSAGGSAGGMLSPEVGLPEVPVTLTDPTNDKVYTITVPPDTNPAEVAAALGVALLLSAGGSAGGSAGGS [r10_202_JUSTAS] | -0.237 ± 0.38 kcal/mol | 0.699 ± 0.23 kcal/mol
SAGGSAGGSAGGMLVTETKPLPTPRTVATVVLLSTEEAPLPSGVLVRRETTEVKLVELISAGGSAGGSAGGS [r10_718_JUSTAS] | < -1 kcal/mol | -0.503 ± 0.61 kcal/mol
SAGGSAGGSAGGMPPEETVTVTIVESKPVPDPEGNPVEPLPVKTTTITVPASNPEALAAKSAGGSAGGSAGG [r7_439_JUSTAS] | -0.487 ± 0.21 kcal/mol | 0.00655 ± 0.072 kcal/mol
SAGGSAGGSAGGMPVSVETKLIEKDPVEDVEISLETFPGTDLRVIVTKTKNEVKKTVIPKSAGGSAGGSAGG [r17_370_JUSTAS] | -0.719 ± 0.51 kcal/mol | -0.252 ± 0.13 kcal/mol
SAGGSAGGSAGGMSAEEVREIVEELGFDDPTEVVVLDLPDGRRVLVTNPPDGLRLEVLDSAGGSAGGSAGGS [r10_604_TrMRF] | 0.562 ± 0.12 kcal/mol | 0.967 ± 0.053 kcal/mol
SAGGSAGGSAGGMSSTVTVTTTPVDPNVGLYRVTTTTYYVDPDGPAHPGTSVSLVNRALSSAGGSAGGSAGG [r11_51_JUSTAS] | < -1 kcal/mol | -1.34 ± 0.83 kcal/mol
SAGGSAGGSAGGMSVSPEGYSVSVTGSGPRGVPVPASNAAEQRAALAAQPDVSSVTVTASSAGGSAGGSAGG [r11_587_JUSTAS] | -0.883 ± 0.18 kcal/mol | 0.36 ± 0.05 kcal/mol
SAGGSAGGSAGGMTETKVYPKSSEGGKLTTITTTTTPLKDPKGNWSTKTTTTTSVSPATSAGGSAGGSAGGS [r10_496_JUSTAS] | -0.486 ± 0.27 kcal/mol | 0.131 ± 0.15 kcal/mol
SAGGSAGGSAGGMTITKSPEPDLVTVTLPDASGTTVATLTFSPEVVESDPALVAAAAAATSAGGSAGGSAGG [r17_496_JUSTAS] | -0.335 ± 0.39 kcal/mol | 0.516 ± 0.095 kcal/mol
SAGGSAGGSAGGMTRTITVKSPGDAEAVVEELKPLGWEVKEIKKDTANPNVYTVTVEKPSAGGSAGGSAGGS [r10_104_JUSTAS] | 0.198 ± 0.25 kcal/mol | 0.752 ± 0.15 kcal/mol
